A word on the EC50: it is the concentration that produces a half-maximal response.

The target in assay [1] is T1, human neonatal Fc receptor (hFcRn) (human, UniProt P55899 24-290; P61769 21-119).
T1 construct: Biotinylated in the ELISA, Octet and yeast assays; also called human FcRn; huFcRn
Description: phage ELISA pH 6.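 Also: higher score means stronger binding and above about 3 to 5 exceeds background.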 Background: An ELISA detects its analyte on a solid surface through an enzyme-linked reagent.

Assay [2] concerns the target T1, human neonatal Fc receptor (hFcRn). The experiment in a line: SPR competition pH 5.5. As to the method: (§1) Binding of variant Fc-fragments to human and cynomolgus monkey FcRn was tested using a BIAcore® T100 analysis system (GE Healthcare Bio-Sciences AB Private Limited Liability Company, Uppsala, Sweden) at both pH 5.5 and pH 7.4. The test consisted of incubating various concentrations of the variant Fc-fragments or control Fc-fragments with a fixed amount of human or cynomolgus monkey FcRn under binding conditions and subsequently measuring the amount of free, unbound FcRn in these mixtures by binding to a surface (in a flow cell of a CM5 (Biacore) chip) on which an Fc-fragment was immobilized. […] Thus, the amount of unbound FcRn in the mixture was quantitatively ascertained by surface plasmon resonance through use of the BIAcore® T100 analysis system. […] Initially, a group of 23 variant-Fc-fragments (Fc-5-1 being considered a control) identified in the experiments described above were tested for binding to human FcRn.
(§2) To obtain a reasonable signal for the different molecules and conditions tested, different assay conditions were used. For assays at pH 5.5, 10 nM of human or cynomolgus monkey FcRn was mixed with serial dilutions of the variant and control Fc-fragments being tested (which ranged from 0.1˜2,000 nM) and incubated for 1 hour at room temperature in 10 mM sodium acetate, pH 5.5, 150 mM NaCl, 0.005% P20, 0.1 mg/mL BSA. As positive controls, […] human and cynomolgus monkey FcRn were each incubated in the same solution, for the same time, and at the same temperature described immediately above, but without an added Fc-fragment.

For assay [3] the target is unchanged. The experiment in a line: phage ELISA pH 7.4.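 Also: higher score means stronger binding and above about 3 to 5 exceeds background.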
Assay [4] addresses T2, cynomolgus monkey FcRn (cynomolgus monkey, UniProt Q8SPV9 24-297; Q8SPW0 21-119, limits assumed).
T2 construct: also called Cynomolgus FcRn
The experiment in a line: SPR competition pH 5.5. As to the method: as §1, §2

T1 sequence (P55899 24-290 limits assumed, chain 1 of 2): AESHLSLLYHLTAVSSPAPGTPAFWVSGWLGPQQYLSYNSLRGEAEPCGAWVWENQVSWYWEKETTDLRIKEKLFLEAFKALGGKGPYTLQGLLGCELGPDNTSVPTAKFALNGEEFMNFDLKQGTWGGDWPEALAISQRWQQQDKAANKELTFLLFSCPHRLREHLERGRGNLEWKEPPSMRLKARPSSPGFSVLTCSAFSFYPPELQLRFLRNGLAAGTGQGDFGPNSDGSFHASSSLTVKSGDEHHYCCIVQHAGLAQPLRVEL
T1 sequence (P61769 21-119 limits assumed, chain 2 of 2): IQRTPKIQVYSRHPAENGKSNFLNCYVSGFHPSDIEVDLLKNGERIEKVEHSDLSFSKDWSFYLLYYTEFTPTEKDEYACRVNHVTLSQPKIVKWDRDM
T2 sequence (Q8SPV9 24-297 limits assumed, chain 1 of 2): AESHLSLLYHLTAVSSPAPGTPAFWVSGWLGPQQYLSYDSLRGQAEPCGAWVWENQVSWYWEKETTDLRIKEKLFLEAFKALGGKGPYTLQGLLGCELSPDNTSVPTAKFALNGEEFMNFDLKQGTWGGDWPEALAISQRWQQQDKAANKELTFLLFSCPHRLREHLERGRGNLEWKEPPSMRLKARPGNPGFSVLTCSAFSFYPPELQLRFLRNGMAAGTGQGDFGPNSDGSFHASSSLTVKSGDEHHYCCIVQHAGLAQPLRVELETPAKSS
T2 sequence (Q8SPW0 21-119 limits assumed, chain 2 of 2): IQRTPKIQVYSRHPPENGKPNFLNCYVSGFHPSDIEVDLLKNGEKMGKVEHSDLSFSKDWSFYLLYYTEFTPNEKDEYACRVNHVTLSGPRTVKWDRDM

B1: variant Fc-fragment Fc-5-73 (other)
chain: EPKSCDKTHTCPPCPAPELLGGPSVFLFPPKPKDTLMISRTPEVTCVVVDVSHEDPEVKFNWYVDGVEVHNAKTKPREEQYNSTYRVVSVLTVLHQDWLNGKEYKCKVSNKALPAPIEKTISKAKGQPREPQVYTLPPSRDELTKNQVSLTCLVKGFYPSDIAVEWESNGGCAQQWHHEYCGGGQPENNYKTTPPVLDSDGSFFLYSKLTVDKSRWQQGNVFSCSVMHEALHNHYTQKSLSLSPGK
notes: soluble elsewhere
On to B1, for which the ELISA score in assay [1] is 54.5; in assay [3], 0.3. In addition, the EC50 in assay [2] came out at 190 nM.

B2: variant Fc-fragment Fc-5-51 (other)
chain: EPKSCDKTHTCPPCPAPELLGGPSVFLFPPKPKDTLMISRTPEVTCVVVDVSHEDPEVKFNWYVDGVEVHNAKTKPREEQYNSTYRVVSVLTVLHQDWLNGKEYKCKVSNKALPAPIEKTISKAKGQPREPQVYTLPPSRDELTKNQVSLTCLVKGFYPSDIAVEWESNGGCHLPFAVCGGGQPENNYKTTPPVLDSDGSFFLYSKLTVDKSRWQQGNVFSCSVMHEALHNHYTQKSLSLSPGK
notes: soluble elsewhere
In the case of B2, the ELISA score in assay [1] stood at 82.5; in assay [3], 0.4. Further, the values for the EC50 in assay [2] and in assay [4] were 16 nM and 21 nM, respectively.

B3: variant Fc-fragment Fc-5-96 (other)
chain: EPKSCDKTHTCPPCPAPELLGGPSVFLFPPKPKDTLMISRTPEVTCVVVDVSHEDPEVKFNWYVDGVEVHNAKTKPREEQYNSTYRVVSVLTVLHQDWLNGKEYKCKVSNKALPAPIEKTISKAKGQPREPQVYTLPPSRDELTKNQVSLTCLVKGFYPSDIAVEWESNGGCMQMNKWCGGGQPENNYKTTPPVLDSDGSFFLYSKLTVDKSRWQQGNVFSCSVMHEALHNHYTQKSLSLSPGK
notes: soluble elsewhere
Consider B3, for which the ELISA score was 72.7 in assay [1] and 0.5 in assay [3]. For the same molecule, the EC50 in assay [2] amounted to 76 nM.

B4: variant Fc-fragment Fc-5-79 (other)
chain: EPKSCDKTHTCPPCPAPELLGGPSVFLFPPKPKDTLMISRTPEVTCVVVDVSHEDPEVKFNWYVDGVEVHNAKTKPREEQYNSTYRVVSVLTVLHQDWLNGKEYKCKVSNKALPAPIEKTISKAKGQPREPQVYTLPPSRDELTKNQVSLTCLVKGFYPSDIAVEWESNGGCVNTWWSCGGGQPENNYKTTPPVLDSDGSFFLYSKLTVDKSRWQQGNVFSCSVMHEALHNHYTQKSLSLSPGK
notes: library L5 isolate
With B4, the EC50 in assay [2] came out at 53 nM; in assay [4], 63 nM.

B5: variant Fc-fragment Fc-5-55 (other)
chain: EPKSCDKTHTCPPCPAPELLGGPSVFLFPPKPKDTLMISRTPEVTCVVVDVSHEDPEVKFNWYVDGVEVHNAKTKPREEQYNSTYRVVSVLTVLHQDWLNGKEYKCKVSNKALPAPIEKTISKAKGQPREPQVYTLPPSRDELTKNQVSLTCLVKGFYPSDIAVEWESNGGCMQVWGSCGGGQPENNYKTTPPVLDSDGSFFLYSKLTVDKSRWQQGNVFSCSVMHEALHNHYTQKSLSLSPGK
notes: library L5 isolate
For the molecule B5, the results for the EC50 in assay [2] and in assay [4] were 49 nM and 53 nM, respectively.

B6: variant Fc-fragment Fc-5-95 (other)
chain: EPKSCDKTHTCPPCPAPELLGGPSVFLFPPKPKDTLMISRTPEVTCVVVDVSHEDPEVKFNWYVDGVEVHNAKTKPREEQYNSTYRVVSVLTVLHQDWLNGKEYKCKVSNKALPAPIEKTISKAKGQPREPQVYTLPPSRDELTKNQVSLTCLVKGFYPSDIAVEWESNGGCDRPVWFCGGGQPENNYKTTPPVLDSDGSFFLYSKLTVDKSRWQQGNVFSCSVMHEALHNHYTQKSLSLSPGK
notes: library L5 isolate
Regarding B6, the figures for the EC50 in assay [2] and in assay [4] were 42 nM and 50 nM, respectively.

B7: variant Fc-fragment Fc-5-57 (other)
chain: EPKSCDKTHTCPPCPAPELLGGPSVFLFPPKPKDTLMISRTPEVTCVVVDVSHEDPEVKFNWYVDGVEVHNAKTKPREEQYNSTYRVVSVLTVLHQDWLNGKEYKCKVSNKALPAPIEKTISKAKGQPREPQVYTLPPSRDELTKNQVSLTCLVKGFYPSDIAVEWESNGGCGKHWHQCGGGQPENNYKTTPPVLDSDGSFFLYSKLTVDKSRWQQGNVFSCSVMHEALHNHYTQKSLSLSPGK
notes: soluble elsewhere
As for B7, the values for the ELISA score in assay [1] and in assay [3] were 57.8 and 0.3, respectively. The molecule also displayed an EC50 in assay [2] of 180 nM.

B8: variant Fc-fragment Fc-5-92 (other)
chain: EPKSCDKTHTCPPCPAPELLGGPSVFLFPPKPKDTLMISRTPEVTCVVVDVSHEDPEVKFNWYVDGVEVHNAKTKPREEQYNSTYRVVSVLTVLHQDWLNGKEYKCKVSNKALPAPIEKTISKAKGQPREPQVYTLPPSRDELTKNQVSLTCLVKGFYPSDIAVEWESNGGCDGRTKYCGGGQPENNYKTTPPVLDSDGSFFLYSKLTVDKSRWQQGNVFSCSVMHEALHNHYTQKSLSLSPGK
notes: soluble elsewhere
For the molecule B8, the results for the ELISA score in assay [1] and in assay [3] were 64.1 and 0.5, respectively. In addition, the EC50 in assay [2] was 75 nM.

B9: variant Fc-fragment Fc-5-64 (other)
chain: EPKSCDKTHTCPPCPAPELLGGPSVFLFPPKPKDTLMISRTPEVTCVVVDVSHEDPEVKFNWYVDGVEVHNAKTKPREEQYNSTYRVVSVLTVLHQDWLNGKEYKCKVSNKALPAPIEKTISKAKGQPREPQVYTLPPSRDELTKNQVSLTCLVKGFYPSDIAVEWESNGGCHSFKHFCGGGQPENNYKTTPPVLDSDGSFFLYSKLTVDKSRWQQGNVFSCSVMHEALHNHYTQKSLSLSPGK
notes: soluble elsewhere
Take B9: the ELISA score in assay [1] came to 57.2; in assay [3] it was 0.4. In assay [2], this molecule returned an EC50 of 210 nM.

B10: variant Fc-fragment Fc-5-97 (other)
chain: EPKSCDKTHTCPPCPAPELLGGPSVFLFPPKPKDTLMISRTPEVTCVVVDVSHEDPEVKFNWYVDGVEVHNAKTKPREEQYNSTYRVVSVLTVLHQDWLNGKEYKCKVSNKALPAPIEKTISKAKGQPREPQVYTLPPSRDELTKNQVSLTCLVKGFYPSDIAVEWESNGGCNMLWGSCGGGQPENNYKTTPPVLDSDGSFFLYSKLTVDKSRWQQGNVFSCSVMHEALHNHYTQKSLSLSPGK
notes: library L5 isolate
Regarding B10, the EC50 in assay [2] amounted to 25 nM; in assay [4], 31 nM.

B11: variant Fc-fragment Fc-5-60 (other)
chain: EPKSCDKTHTCPPCPAPELLGGPSVFLFPPKPKDTLMISRTPEVTCVVVDVSHEDPEVKFNWYVDGVEVHNAKTKPREEQYNSTYRVVSVLTVLHQDWLNGKEYKCKVSNKALPAPIEKTISKAKGQPREPQVYTLPPSRDELTKNQVSLTCLVKGFYPSDIAVEWESNGGCQKGWVFCGGGQPENNYKTTPPVLDSDGSFFLYSKLTVDKSRWQQGNVFSCSVMHEALHNHYTQKSLSLSPGK
notes: library L5 isolate
Consider B11, for which the results for the EC50 in assay [2] and in assay [4] were 67 nM and 60 nM, respectively.

B12: variant Fc-fragment Fc-5-104 (other)
chain: EPKSCDKTHTCPPCPAPELLGGPSVFLFPPKPKDTLMISRTPEVTCVVVDVSHEDPEVKFNWYVDGVEVHNAKTKPREEQYNSTYRVVSVLTVLHQDWLNGKEYKCKVSNKALPAPIEKTISKAKGQPREPQVYTLPPSRDELTKNQVSLTCLVKGFYPSDIAVEWESNGGCGHEYMWCGGGQPENNYKTTPPVLDSDGSFFLYSKLTVDKSRWQQGNVFSCSVMHEALHNHYTQKSLSLSPGK
notes: soluble elsewhere
On to B12, for which, in assay [1], the ELISA score was found to be 82.4. Further, the EC50 came out at 15 nM in assay [2] and 16 nM in assay [4].

B13: variant Fc-fragment Fc-5-70 (other)
chain: EPKSCDKTHTCPPCPAPELLGGPSVFLFPPKPKDTLMISRTPEVTCVVVDVSHEDPEVKFNWYVDGVEVHNAKTKPREEQYNSTYRVVSVLTVLHQDWLNGKEYKCKVSNKALPAPIEKTISKAKGQPREPQVYTLPPSRDELTKNQVSLTCLVKGFYPSDIAVEWESNGGCMVPFSMCGGGQPENNYKTTPPVLDSDGSFFLYSKLTVDKSRWQQGNVFSCSVMHEALHNHYTQKSLSLSPGK
notes: library L5 isolate
As for B13, the EC50 turned out to be 26 nM in assay [2] and 27 nM in assay [4].

B14: variant Fc-fragment Fc-5-99 (other)
chain: EPKSCDKTHTCPPCPAPELLGGPSVFLFPPKPKDTLMISRTPEVTCVVVDVSHEDPEVKFNWYVDGVEVHNAKTKPREEQYNSTYRVVSVLTVLHQDWLNGKEYKCKVSNKALPAPIEKTISKAKGQPREPQVYTLPPSRDELTKNQVSLTCLVKGFYPSDIAVEWESNGGCYITQKLCGGGQPENNYKTTPPVLDSDGSFFLYSKLTVDKSRWQQGNVFSCSVMHEALHNHYTQKSLSLSPGK
notes: library L5 isolate
Consider B14, for which the values for the EC50 in assay [2] and in assay [4] were 15 nM and 16 nM, respectively.

B15: variant Fc-fragment Fc-5-85 (other)
chain: EPKSCDKTHTCPPCPAPELLGGPSVFLFPPKPKDTLMISRTPEVTCVVVDVSHEDPEVKFNWYVDGVEVHNAKTKPREEQYNSTYRVVSVLTVLHQDWLNGKEYKCKVSNKALPAPIEKTISKAKGQPREPQVYTLPPSRDELTKNQVSLTCLVKGFYPSDIAVEWESNGGCIGPFWWCGGGQPENNYKTTPPVLDSDGSFFLYSKLTVDKSRWQQGNVFSCSVMHEALHNHYTQKSLSLSPGK
notes: library L5 isolate
In the case of B15, the results for the EC50 in assay [2] and in assay [4] were 18 nM and 25 nM, respectively.

The values above are taken from patent US20140356358A1 (Amgen, published 2014).
